Reference: PMC3518268 (Science (New York, N.Y.), 2009)

T1: pseudokinase domain of STRADα (residues 59-431) (human, UniProt Q7RTN6 59-431)
T1 sequence (looked up): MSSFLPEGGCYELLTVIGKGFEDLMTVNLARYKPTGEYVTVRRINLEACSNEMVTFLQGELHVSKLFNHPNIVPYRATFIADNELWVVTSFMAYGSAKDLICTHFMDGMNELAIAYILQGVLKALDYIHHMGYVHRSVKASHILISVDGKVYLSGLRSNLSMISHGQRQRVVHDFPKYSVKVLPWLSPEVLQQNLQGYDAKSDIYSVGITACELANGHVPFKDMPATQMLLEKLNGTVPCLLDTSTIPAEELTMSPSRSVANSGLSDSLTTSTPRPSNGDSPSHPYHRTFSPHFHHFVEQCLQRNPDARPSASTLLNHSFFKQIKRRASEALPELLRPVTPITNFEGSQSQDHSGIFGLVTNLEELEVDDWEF

B1: LKB1 kinase domain (residues 43-347), catalytically inactive mutant Asp194Ala (domain or fragment, human, UniProt Q15831 43-347, looked up)
chain: AKLIGKYLMGDLLGEGSYGKVKEVLDSETLCRRAVKILKKKKLRRIPNGEANVKKEIQLLRRLRHKNVIQLVDVLYNEEKQKMYMVMEYCVCGMQEMLDSVPEKRFPVCQAHGYFCQLIDGLEYLHSQGIVHKDIKPGNLLLTTGGTLKISALGVAEALHPFAADDTCRTSQGSPAFQPPEIANGLDTFSGFKVDIWSAGVTLYNITTGLYPFEGDNIYKLFENIGKGSYAIPGDCGPPLSDLLKGMLEYEPAKRFSIRQIRQHSWFRKKHPPAEAPVPIPPSPDTKDRWRSMTVVPYLEDLHGA
B2: full length MO25α (natural protein, human, UniProt Q9Y376 1-341, looked up)
chain: MPFPFGKSHKSPADIVKNLKESMAVLEKQDISDKKAEKATEEVSKNLVAMKEILYGTNEKEPQTEAVAQLAQELYNSGLLSTLVADLQLIDFEGKKDVAQIFNNILRRQIGTRTPTVEYICTQQNILFMLLKGYESPEIALNCGIMLRECIRHEPLAKIILWSEQFYDFFRYVEMSTFDIASDAFATFKDLLTRHKLLSAEFLEQHYDRFFSEYEKLLHSENYVTKRQSLKLLGELLLDRHNFTIMTKYISKPENLKLMMNLLRDKSRNIQFEAFHVFKVFVANPNKTQPILDILLKNQAKLIEFLSKFQNDRTEDEQFNDEKTYLVKQIRDLKRPAQQEA

Legend:
[1] = target: T1, pseudokinase domain of STRADα (residues …); test: crystal structure
full length MO25α = target: B2; test: crystal structure

Row | binding result [1] | binding result (full length MO25α) | Binder
1 | binds | binds | B1
2 | binds |  | B2
